Measured values: US20170088600A1 (published 2017)

T1: mouse TRAIL expressed on transiently transfected 293T cells (mouse, UniProt P50592 1-291)
T1 construct: whole, on cells; also called mTRAIL; mouse (m) TRAIL
T1 sequence (looked up): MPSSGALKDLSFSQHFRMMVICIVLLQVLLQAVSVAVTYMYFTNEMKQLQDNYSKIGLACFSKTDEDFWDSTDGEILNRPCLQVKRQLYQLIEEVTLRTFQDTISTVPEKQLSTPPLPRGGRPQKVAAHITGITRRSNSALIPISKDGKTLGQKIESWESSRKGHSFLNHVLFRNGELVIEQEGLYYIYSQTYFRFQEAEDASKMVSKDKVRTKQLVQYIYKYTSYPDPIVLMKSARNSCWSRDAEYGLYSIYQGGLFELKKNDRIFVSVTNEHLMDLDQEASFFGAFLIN


Tests used:
[1] = molecular target: T2, TRAIL (TNFSF10) ectodomain (UniProt P50591 39-281, limits assumed); test: SPR, mutant TRAIL-R2-Fc captured, TRAIL as analyte
T2 construct: extracellular domain; also called endogenous TRAIL; TRAIL ectodomain

[2] = molecular target: T1, mouse TRAIL expressed on transiently …; test: flow cytometry on 293T cells transfected with mouse TRAIL

T2 sequence (P50591 39-281 limits assumed): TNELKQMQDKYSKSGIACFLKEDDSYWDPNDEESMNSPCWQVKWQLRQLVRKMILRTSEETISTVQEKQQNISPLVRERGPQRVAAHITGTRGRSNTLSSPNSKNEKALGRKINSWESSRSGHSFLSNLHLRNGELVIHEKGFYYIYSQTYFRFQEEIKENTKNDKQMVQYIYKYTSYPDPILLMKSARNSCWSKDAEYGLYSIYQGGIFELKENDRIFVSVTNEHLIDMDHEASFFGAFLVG

| Binder | Kd [1] [nM] | koff [1] [s⁻¹] | kon [1] [M⁻¹ s⁻¹] | binding result [2] | binding result [1] |
| --- | --- | --- | --- | --- | --- |
| TRAIL-R2-Fc K155A (Fc fusion, human, not shown: a dimerising Fc or GST, range 58-184) QQDLAPQQRAAPQQKRSSPSEGLCPPGHHISEDGRDCISCKYGQDYSTHWNDLLFCLRCTRCDSGEVELSPCTTTRNTVCQCEEGTFREEDSPEMCRACRTGCPRGMVKVGDCTPWSDIECVHKESGLVPRGS | 39.7 | 0.000138 | 3480 | – | – |
| TRAIL-R2-Fc V167A (Fc fusion, human, not shown: a dimerising Fc or GST, range 58-184) QQDLAPQQRAAPQQKRSSPSEGLCPPGHHISEDGRDCISCKYGQDYSTHWNDLLFCLRCTRCDSGEVELSPCTTTRNTVCQCEEGTFREEDSPEMCRKCRTGCPRGMVKAGDCTPWSDIECVHKESGLVPRGS | 4.35 | 9.57e-06 | 2200 | – | – |
| mouse TRAIL-R2:Fc (extracellular domain of mouse TRAIL-R2 fused to human IgG constant domain) (Fc fusion, UniProt Q9QZM4 53-180, looked up, extracellular domain; also called mTRAIL-R2:Fc; not shown: printed only as the human IgG VH constant domain; subclass, limits and linker no) NPAHNRPAGLQRPEESPSRGPCLAGQYLSEGNCKPCREGIDYTSHSNHSLDSCILCTVCKEDKVVETRCNITTNTVCRCKPGTFEDKDSPEICQSCSNCTDGEEELTSCTPRENRKCVSKTAWASWHK | – | – | – | binds | – |
| TRAIL-R2-Fc P150A (Fc fusion, human, not shown: a dimerising Fc or GST, range 58-184) QQDLAPQQRAAPQQKRSSPSEGLCPPGHHISEDGRDCISCKYGQDYSTHWNDLLFCLRCTRCDSGEVELSPCTTTRNTVCQCEEGTFREEDSAEMCRKCRTGCPRGMVKVGDCTPWSDIECVHKESGLVPRGS | 4.29 | 9.02e-06 | 2100 | – | – |
| TRAIL-R2-Fc D148A (Fc fusion, human, not shown: a dimerising Fc or GST, range 58-184) QQDLAPQQRAAPQQKRSSPSEGLCPPGHHISEDGRDCISCKYGQDYSTHWNDLLFCLRCTRCDSGEVELSPCTTTRNTVCQCEEGTFREEASPEMCRKCRTGCPRGMVKVGDCTPWSDIECVHKESGLVPRGS | 4.48 | 3.58e-05 | 8000 | – | – |
| TRAIL-R2-Fc F112A (Fc fusion, human, not shown: a dimerising Fc or GST, range 58-184) QQDLAPQQRAAPQQKRSSPSEGLCPPGHHISEDGRDCISCKYGQDYSTHWNDLLACLRCTRCDSGEVELSPCTTTRNTVCQCEEGTFREEDSPEMCRKCRTGCPRGMVKVGDCTPWSDIECVHKESGLVPRGS | 3.94 | 9.86e-06 | 2500 | – | – |
| TRAIL-R2-Fc M152A (Fc fusion, human, not shown: a dimerising Fc or GST, range 58-184) QQDLAPQQRAAPQQKRSSPSEGLCPPGHHISEDGRDCISCKYGQDYSTHWNDLLFCLRCTRCDSGEVELSPCTTTRNTVCQCEEGTFREEDSPEACRKCRTGCPRGMVKVGDCTPWSDIECVHKESGLVPRGS | 202 | 0.000678 | 3350 | – | – |
| TRAIL-R2-Fc E151A (Fc fusion, human, not shown: a dimerising Fc or GST, range 58-184) QQDLAPQQRAAPQQKRSSPSEGLCPPGHHISEDGRDCISCKYGQDYSTHWNDLLFCLRCTRCDSGEVELSPCTTTRNTVCQCEEGTFREEDSPAMCRKCRTGCPRGMVKVGDCTPWSDIECVHKESGLVPRGS | – | – | – | – | no binding (tested: up to 1 µM ligand) |
| TRAIL-R2-Fc L110A/L114A (Fc fusion, human, not shown: a dimerising Fc or GST, range 58-184; also called L110/L114) QQDLAPQQRAAPQQKRSSPSEGLCPPGHHISEDGRDCISCKYGQDYSTHWNDALFCARCTRCDSGEVELSPCTTTRNTVCQCEEGTFREEDSPEMCRKCRTGCPRGMVKVGDCTPWSDIECVHKESGLVPRGS | – | – | – | – | no binding |
| TRAIL-R2-Fc M152A/R154A/K155A (Fc fusion, human, not shown: a dimerising Fc or GST, range 58-184; also called M152/R154/K155) QQDLAPQQRAAPQQKRSSPSEGLCPPGHHISEDGRDCISCKYGQDYSTHWNDLLFCLRCTRCDSGEVELSPCTTTRNTVCQCEEGTFREEDSPEACAACRTGCPRGMVKVGDCTPWSDIECVHKESGLVPRGS | – | – | – | – | no binding |
| TRAIL-R2-Fc Y103A/R133A (Fc fusion, human, not shown: a dimerising Fc or GST, range 58-184; also called Y103/R133) QQDLAPQQRAAPQQKRSSPSEGLCPPGHHISEDGRDCISCKYGQDASTHWNDLLFCLRCTRCDSGEVELSPCTTTANTVCQCEEGTFREEDSPEMCRKCRTGCPRGMVKVGDCTPWSDIECVHKESGLVPRGS | – | – | – | – | no binding |
| TRAIL-R2-Fc Y103A/N134A (Fc fusion, human, not shown: a dimerising Fc or GST, range 58-184; also called Y103/N134) QQDLAPQQRAAPQQKRSSPSEGLCPPGHHISEDGRDCISCKYGQDASTHWNDLLFCLRCTRCDSGEVELSPCTTTRATVCQCEEGTFREEDSPEMCRKCRTGCPRGMVKVGDCTPWSDIECVHKESGLVPRGS | – | – | – | – | no binding |
